Measured values as given in patent US20220308072A1.

Key:
[1] = biological target: Recombinant, his tagged full length human frataxin protein (Abcam ab95502) (human) (UniProt Q16595); assay: Simoa sandwich 3-step; capture Ab-3; frataxin 10000 pg/mL
[2] = biological target: Recombinant, his tagged full length human frataxin protein (Abcam ab95502) (human) (UniProt Q16595); assay: Simoa sandwich 2-step; capture Ab-1; frataxin 6.17 pg/mL
[3] = biological target: Recombinant, his tagged full length human frataxin protein (Abcam ab95502) (human) (UniProt Q16595); assay: Simoa sandwich 2-step (120 min-5 min); capture Ab-1; Diluent 1 + 10% NCS; frataxin 22.2 pg/mL
[4] = biological target: Recombinant, his tagged full length human frataxin protein (Abcam ab95502) (human) (UniProt Q16595); assay: Simoa sandwich 2-step (35 min-5 min); capture Ab-1; with helper beads; frataxin 6.17 pg/mL
[5] = biological target: Recombinant, his tagged full length human frataxin protein (Abcam ab95502) (human) (UniProt Q16595); assay: Simoa sandwich 2-step; capture Ab-2; frataxin 2.06 pg/mL
[6] = biological target: Recombinant, his tagged full length human frataxin protein (Abcam ab95502) (human) (UniProt Q16595); assay: Simoa sandwich 2-step (120 min-5 min); capture Ab-1; Diluent 1 + 10% NCS; frataxin 1.37 pg/mL
[7] = biological target: Recombinant, his tagged full length human frataxin protein (Abcam ab95502) (human) (UniProt Q16595); assay: Simoa sandwich 2-step; capture Ab-2; frataxin 6.17 pg/mL
[8] = biological target: Recombinant, his tagged full length human frataxin protein (Abcam ab95502) (human) (UniProt Q16595); assay: Simoa sandwich 3-step; capture Ab-5
[9] = biological target: Recombinant, his tagged full length human frataxin protein (Abcam ab95502) (human) (UniProt Q16595); assay: Simoa sandwich 2-step; capture Ab-2; frataxin 55.6 pg/mL
[10] = biological target: Recombinant, his tagged full length human frataxin protein (Abcam ab95502) (human) (UniProt Q16595); assay: Simoa sandwich 2-step (120 min-5 min); capture Ab-1; Diluent 1 + 10% NCS; frataxin 4.12 pg/mL
[11] = biological target: Recombinant, his tagged full length human frataxin protein (Abcam ab95502) (human) (UniProt Q16595); assay: Simoa sandwich 2-step (120 min-5 min); capture Ab-1; Diluent 1 + 10% NCS
[12] = biological target: Recombinant, his tagged full length human frataxin protein (Abcam ab95502) (human) (UniProt Q16595); assay: Simoa sandwich 2-step; capture Ab-1; 50 pM SβG
[13] = biological target: Recombinant, his tagged full length human frataxin protein (Abcam ab95502) (human) (UniProt Q16595); assay: Simoa sandwich 2-step; capture Ab-2; frataxin 167 pg/mL
[14] = biological target: Recombinant, his tagged full length human frataxin protein (Abcam ab95502) (human) (UniProt Q16595); assay: Simoa sandwich 3-step; capture Ab-2; frataxin 1000 pg/mL
[15] = biological target: Recombinant, his tagged full length human frataxin protein (Abcam ab95502) (human) (UniProt Q16595); assay: Simoa sandwich 3-step; capture Ab-4; frataxin 1000 pg/mL
[16] = biological target: Recombinant, his tagged full length human frataxin protein (Abcam ab95502) (human) (UniProt Q16595); assay: Simoa sandwich 2-step; capture Ab-4
[17] = biological target: Recombinant, his tagged full length human frataxin protein (Abcam ab95502) (human) (UniProt Q16595); assay: Simoa sandwich 2-step (120 min-5 min); capture Ab-1; frataxin 2.74 pg/mL
[18] = biological target: Recombinant, his tagged full length human frataxin protein (Abcam ab95502) (human) (UniProt Q16595); assay: Simoa sandwich 2-step; capture Ab-1; 50 pM SβG; frataxin 6.17 pg/mL
[19] = biological target: Recombinant, his tagged full length human frataxin protein (Abcam ab95502) (human) (UniProt Q16595); assay: Simoa sandwich 2-step; capture Ab-2; frataxin 1000 pg/mL
[20] = biological target: Recombinant, his tagged full length human frataxin protein (Abcam ab95502) (human) (UniProt Q16595); assay: Simoa sandwich 2-step (120 min-5 min); capture Ab-1; Diluent 1 + 10% NCS; frataxin 200 pg/mL
[21] = biological target: Recombinant, his tagged full length human frataxin protein (Abcam ab95502) (human) (UniProt Q16595); assay: Simoa sandwich 2-step (120 min-5 min); capture Ab-1; Diluent 1 + 5% NCS; frataxin 200 pg/mL
[22] = biological target: Recombinant, his tagged full length human frataxin protein (Abcam ab95502) (human) (UniProt Q16595); assay: Simoa sandwich 2-step (120 min-5 min); capture Ab-1; Diluent 1 + 5% NCS; frataxin 333 pg/mL
[23] = biological target: Recombinant, his tagged full length human frataxin protein (Abcam ab95502) (human) (UniProt Q16595); assay: Simoa sandwich 2-step (120 min-5 min); capture Ab-1; Diluent 1 + 5% NCS; frataxin 4.12 pg/mL
[24] = biological target: Recombinant, his tagged full length human frataxin protein (Abcam ab95502) (human) (UniProt Q16595); assay: Simoa sandwich 2-step (35 min-5 min); capture Ab-1; with helper beads; frataxin 55.6 pg/mL
[25] = biological target: Recombinant, his tagged full length human frataxin protein (Abcam ab95502) (human) (UniProt Q16595); assay: Simoa sandwich 2-step (120 min-5 min); capture Ab-1; frataxin 8.23 pg/mL

Sequence of UniProt Q16595 (Q16595 42-210): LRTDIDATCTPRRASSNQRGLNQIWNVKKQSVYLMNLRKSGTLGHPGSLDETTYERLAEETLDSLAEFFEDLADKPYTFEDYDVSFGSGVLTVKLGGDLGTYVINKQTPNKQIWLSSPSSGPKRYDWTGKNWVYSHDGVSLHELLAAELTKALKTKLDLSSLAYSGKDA

Substance: Ab-3, mouse monoclonal [18A5DB1] to Frataxin (Abcam ab110328) (antibody)
- Ave AEB [1]: 1.06 AEB
- S/B [1]: 224
- Ave AEB [2]: 0.737 AEB
- S/B [2]: 7.1
- Ave AEB [3]: 0.2 AEB
- S/B [3]: 11
- AEB Rep1 [4]: 0.387 AEB
- AEB Rep2 [4]: 0.399 AEB
- Ave AEB [4]: 0.393 AEB
- S/B [4]: 16.1
- Ave AEB [5]: 0.318 AEB
- S/B [5]: 3.33
- Ave AEB [6]: 0.0153 AEB
- S/B [6]: 1.42
- Ave AEB [7]: 0.737 AEB
- S/B [7]: 7.72
- LOD [8]: 1.73 pg/mL
- Ave AEB [9]: 5.21 AEB
- S/B [9]: 54.6
- Ave AEB [10]: 0.0283 AEB
- S/B [10]: 2.63
- LOD [11]: 0.323 pg/mL
- LOD [12]: 0.132 pg/mL
- Ave AEB [13]: 14.1 AEB
- S/B [13]: 148
- Ave AEB [14]: 20.7 AEB
- S/B [14]: 330
- Ave AEB [15]: 17.2 AEB
- S/B [15]: 359
- LOD [16]: 0.34 pg/mL
- AEB rep1 [17]: 0.0165 AEB
- AEB rep2 [17]: 0.0248 AEB
- AEB rep3 [17]: 0.0202 AEB
- Ave AEB [17]: 0.0205 AEB
- S/B [17]: 2.48
- Ave AEB [18]: 0.194 AEB
- S/B [18]: 10.6
- Ave AEB [19]: 37.3 AEB
- S/B [19]: 462
- Ave AEB [20]: 2.03 AEB
- S/B [20]: 112
- Ave AEB [21]: 4.24 AEB
- S/B [21]: 235
- Ave AEB [22]: 3.06 AEB
- S/B [22]: 279
- Ave AEB [23]: 0.0434 AEB
- S/B [23]: 3.95
- AEB Rep1 [24]: 3.47 AEB
- AEB Rep2 [24]: 3.28 AEB
- Ave AEB [24]: 3.38 AEB
- S/B [24]: 139
- AEB rep1 [25]: 0.0466 AEB
- AEB rep2 [25]: 0.048 AEB
- AEB rep3 [25]: 0.0517 AEB
- Ave AEB [25]: 0.0487 AEB
- S/B [25]: 5.91
